Our source for the FGF23 neutralizing activity IC50 (luciferase promoter assay) values is patent US20250163140A1.

In the assay the target is Recombinant Human FGF-23 (R&D Systems, Cat No. 2604-FG-025/CF) (human) (UniProt Q9GZV9). Briefly: cell-based or functional assay.
Sequence of Recombinant Human FGF-23 (R&D Systems, Cat No. 2604-FG-025/CF) (human) (Q9GZV9 25-251 limits assumed): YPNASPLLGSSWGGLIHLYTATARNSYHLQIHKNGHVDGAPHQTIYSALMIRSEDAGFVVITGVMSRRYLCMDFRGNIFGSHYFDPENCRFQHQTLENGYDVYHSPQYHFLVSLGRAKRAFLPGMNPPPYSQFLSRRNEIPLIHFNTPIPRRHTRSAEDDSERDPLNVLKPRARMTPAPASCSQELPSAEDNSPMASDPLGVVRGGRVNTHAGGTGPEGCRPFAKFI

B1: antibody I100Y_G2_LS (antibody)
heavy: QVQLVQSGAEVKKPGASVKVSCKASGYTFTNHYMHWVRQAPGQGLEWMGIINPISGSTSNAQKFQGRVTMTRDTSTSTVYMELSSLRSEDTAVYYCARDYVDAFDFWGQGTMVTVSSASTKGPSVFPLAPCSRSTSESTAALGCLVKDYFPEPVTVSWNSGALTSGVHTFPAVLQSSGLYSLSSVVTVPSSNFGTQTYTCNVDHKPSNTKVDKTVERKCCVECPPCPAPPVAGPSVFLFPPKPKDTLMISRTPEVTCVVVDVSHEDPEVQFNWYVDGVEVHNAKTKPREEQFNSTFRVVSVLTVVHQDWLNGKEYKCKVSNKGLPAPIEKTISKTKGQPREPQVYTLPPSREEMTKNQVSLTCLVKGFYPSDIAVEWESNGQPENNYKTTPPMLDSDGSFFLYSKLTVDKSRWQQGNVFSCSVLHEALHSHYTQKSLSLSPGK
light: AIQLTQSPSSLSASVGDRVTITCRASQGISSALVWYQQKPGKAPKLLIYDASSLESGVPSRFSGSGSGTDFTLTISSLQPEDFATYYCQQFNDYFTFGPGTKVDIK
As for B1, the FGF23 neutralizing activity IC50 (luciferase promoter assay) was 4.4 ng/mL.

B2: antibody I100Y_IgG4PE_R409K_LS (antibody)
heavy: QVQLVQSGAEVKKPGASVKVSCKASGYTFTNHYMHWVRQAPGQGLEWMGIINPISGSTSNAQKFQGRVTMTRDTSTSTVYMELSSLRSEDTAVYYCARDYVDAFDFWGQGTMVTVSSASTKGPSVFPLAPCSRSTSESTAALGCLVKDYFPEPVTVSWNSGALTSGVHTFPAVLQSSGLYSLSSVVTVPSSSLGTKTYTCNVDHKPSNTKVDKRVESKYGPPCPPCPAPEFEGGPSVFLFPPKPKDTLMISRTPEVTCVVVDVSQEDPEVQFNWYVDGVEVHNAKTKPREEQFNSTYRVVSVLTVLHQDWLNGKEYKCKVSNKGLPSSIEKTISKAKGQPREPQVYTLPPSQEEMTKNQVSLTCLVKGFYPSDIAVEWESNGQPENNYKTTPPVLDSDGSFFLYSKLTVDKSRWQEGNVFSCSVLHEALHSHYTQKSLSLSLGK
light: B1 light
As for B2, the FGF23 neutralizing activity IC50 (luciferase promoter assay) was determined as 2.9 ng/mL.
